# Source: US8067220B2, “Alternative crystal form of monoacylglycerol lipase (MGLL)” (Janssen Pharmaceutica N.V., priority 2008, dated 2011)
# Tested on: MGLL
# Assay: Michaelis-Menten kinetics, hydrolysis of 4-methylcoumarin butyrate (4MC-B)
# Type: biochemical, human
# Settings: substrate 4MC-B; 4-5 nM MGLL, 20 mM Pipes pH 7, 150 mM NaCl, 37° C.; average of 2 or 4 assays
# Excerpt: A small fluorescent substrate, 4-methyl coumarin butyrate (4MC-B) was used to compare the activity of the engineered mutants to the activity of wt-MGLL (hMGLL 1-303) (SEQ ID NO: 3). The catalytic efficiency (kcat/KM) for the hydrolysis of the 4MC-B was similar for wt-MGLL (hMGLL 1-303) (SEQ ID NO: 3) and all MGLL mutants tested (Table 2). A larger more aliphatic fluorescent substrate, Coumarin Arachidonate (C-A), structurally more closely related to the MGLL natural substrate, 2-AG, was used to compare the activity of wt-MGLL (hMGLL 1-303) (SEQ ID NO: 3) to TEV protease cleaved mut-MGLL (hMGLL 1-303 L169S, L176S) (SEQ ID NO: 5).
# The Michaelis-Menten parameters for the hydrolysis of 4-methylcoumarin butyrate (4MC-B) and coumarin arachidonate (C-A) substrate were determined using 4-5 nM of MGLL in 20 mM Pipes pH 7 and 150 mM NaCl at 37° C. The change in fluorescence due to substrate hydrolysis was monitored using excitation/emission wavelengths of 335/440 in a Safire II instrument from Tecan. The hyperbolic rates versus substrate concentration curves for the hydrolysis of 4MC-B were fit to the Michaelis-Menten equation using Excel.
Molecule,Kcat,Km
"mut-MGLL 9-297, L169S, L176S: truncated human MGLL 9-297 with L169S, L176S (protein, UniProt Q99685 9-297, looked up, variant L169S L176S) RTPQSIPYQDLPHLVNADGQYLFCRYWKPTGTPKALIFVSHGAGEHSGRYEELARMLMGLDLLVFAHDHVGHGQSEGERMVVSDFHVFVRDVLQHVDSMQKDYPGLPVFLLGHSMGGAIAILTAAERPGHFAGMVLISPLVLANPESATTFKVLAAKVLNSVLPNLSSGPIDSSVLSRNKTEVDIYNSDPLICRAGLKVCFGIQLLNAVSRVERALPKLTVPFLLLQGSADRLCDSKGAYLLMELAKSQDKTLKIYEGAYHVLHKELPEVTNSVFHEINMWVSQRTATA",0.433 s⁻¹,126 µM
"mut-MGLL 1-303, L169S, L176S, K36A: human MGLL 1-303 with cap mutations L169S, L176S and surface mutation K36A (protein) GMPEESSPRRTPQSIPYQDLPHLVNADGQYLFCRYWAPTGTPKALIFVSHGAGEHSGRYEELARMLMGLDLLVFAHDHVGHGQSEGERMVVSDFHVFVRDVLQHVDSMQKDYPGLPVFLLGHSMGGAIAILTAAERPGHFAGMVLISPLVLANPESATTFKVLAAKVLNSVLPNLSSGPIDSSVLSRNKTEVDIYNSDPLICRAGLKVCFGIQLLNAVSRVERALPKLTVPFLLLQGSADRLCDSKGAYLLMELAKSQDKTLKIYEGAYHVLHKELPEVTNSVFHEINMWVSQRTATAGTASPP",0.85 s⁻¹,124 µM
"mut-MGLL 9-303, L169S, L176S: N-terminally truncated human MGLL 9-303 with L169S, L176S (protein, UniProt Q99685 9-303, looked up, variant L169S L176S) RTPQSIPYQDLPHLVNADGQYLFCRYWKPTGTPKALIFVSHGAGEHSGRYEELARMLMGLDLLVFAHDHVGHGQSEGERMVVSDFHVFVRDVLQHVDSMQKDYPGLPVFLLGHSMGGAIAILTAAERPGHFAGMVLISPLVLANPESATTFKVLAAKVLNSVLPNLSSGPIDSSVLSRNKTEVDIYNSDPLICRAGLKVCFGIQLLNAVSRVERALPKLTVPFLLLQGSADRLCDSKGAYLLMELAKSQDKTLKIYEGAYHVLHKELPEVTNSVFHEINMWVSQRTATAGTASPP",0.45 s⁻¹,88 µM
"mut-MGLL 1-303, L171Q: human MGLL 1-303 with cap-domain mutation L171Q (protein, UniProt Q99685 1-303, looked up, variant L171Q) Monoglyceride lipase: MPEESSPRRTPQSIPYQDLPHLVNADGQYLFCRYWKPTGTPKALIFVSHGAGEHSGRYEELARMLMGLDLLVFAHDHVGHGQSEGERMVVSDFHVFVRDVLQHVDSMQKDYPGLPVFLLGHSMGGAIAILTAAERPGHFAGMVLISPLVLANPESATTFKVLAAKVLNLVQPNLSLGPIDSSVLSRNKTEVDIYNSDPLICRAGLKVCFGIQLLNAVSRVERALPKLTVPFLLLQGSADRLCDSKGAYLLMELAKSQDKTLKIYEGAYHVLHKELPEVTNSVFHEINMWVSQRTATAGTASPP",0.85 s⁻¹,105 µM
"mut-MGLL 1-303, L169S, L176S, K36A, K226A: human MGLL 1-303 with L169S, L176S and surface mutations K36A, K226A (protein) MPEESSPRRTPQSIPYQDLPHLVNADGQYLFCRYWAPTGTPKALIFVSHGAGEHSGRYEELARMLMGLDLLVFAHDHVGHGQSEGERMVVSDFHVFVRDVLQHVDSMQKDYPGLPVFLLGHSMGGAIAILTAAERPGHFAGMVLISPLVLANPESATTFKVLAAKVLNSVLPNLSSGPIDSSVLSRNKTEVDIYNSDPLICRAGLKVCFGIQLLNAVSRVERALPALTVPFLLLQGSADRLCDSKGAYLLMELAKSQDKTLKIYEGAYHVLHKELPEVTNSVFHEINMWVSQRTATAGTASPP",0.5 s⁻¹,123 µM
"mut-MGLL.1-303, L169S, L176S, K160A: human MGLL 1-303 with L169S, L176S and surface mutation K160A (protein) MPEESSPRRTPQSIPYQDLPHLVNADGQYLFCRYWKPTGTPKALIFVSHGAGEHSGRYEELARMLMGLDLLVFAHDHVGHGQSEGERMVVSDFHVFVRDVLQHVDSMQKDYPGLPVFLLGHSMGGAIAILTAAERPGHFAGMVLISPLVLANPESATTFAVLAAKVLNSVLPNLSSGPIDSSVLSRNKTEVDIYNSDPLICRAGLKVCFGIQLLNAVSRVERALPKLTVPFLLLQGSADRLCDSKGAYLLMELAKSQDKTLKIYEGAYHVLHKELPEVTNSVFHEINMWVSQRTATAGTASPP",0.5 s⁻¹,90 µM
"mut-MGLL.1-303, L169S, L176S, K165A: human MGLL 1-303 with L169S, L176S and surface mutation K165A (protein) MPEESSPRRTPQSIPYQDLPHLVNADGQYLFCRYWKPTGTPKALIFVSHGAGEHSGRYEELARMLMGLDLLVFAHDHVGHGQSEGERMVVSDFHVFVRDVLQHVDSMQKDYPGLPVFLLGHSMGGAIAILTAAERPGHFAGMVLISPLVLANPESATTFKVLAAAVLNSVLPNLSSGPIDSSVLSRNKTEVDIYNSDPLICRAGLKVCFGIQLLNAVSRVERALPKLTVPFLLLQGSADRLCDSKGAYLLMELAKSQDKTLKIYEGAYHVLHKELPEVTNSVFHEINMWVSQRTATAGTASPP",0.45 s⁻¹,137 µM
"mut-MGLL 1-303, L171Q, L174Q: human MGLL 1-303 with cap-domain mutations L171Q, L174Q (protein, UniProt Q99685 1-303, looked up, variant L171Q L174Q) Monoglyceride lipase: MPEESSPRRTPQSIPYQDLPHLVNADGQYLFCRYWKPTGTPKALIFVSHGAGEHSGRYEELARMLMGLDLLVFAHDHVGHGQSEGERMVVSDFHVFVRDVLQHVDSMQKDYPGLPVFLLGHSMGGAIAILTAAERPGHFAGMVLISPLVLANPESATTFKVLAAKVLNLVQPNQSLGPIDSSVLSRNKTEVDIYNSDPLICRAGLKVCFGIQLLNAVSRVERALPKLTVPFLLLQGSADRLCDSKGAYLLMELAKSQDKTLKIYEGAYHVLHKELPEVTNSVFHEINMWVSQRTATAGTASPP",0.783 s⁻¹,89 µM
"mut-MGLL 1-303, L169S, L176S, K226A: human MGLL 1-303 with L169S, L176S and surface mutation K226A (protein) MPEESSPRRTPQSIPYQDLPHLVNADGQYLFCRYWKPTGTPKALIFVSHGAGEHSGRYEELARMLMGLDLLVFAHDHVGHGQSEGERMVVSDFHVFVRDVLQHVDSMQKDYPGLPVFLLGHSMGGAIAILTAAERPGHFAGMVLISPLVLANPESATTFKVLAAKVLNSVLPNLSSGPIDSSVLSRNKTEVDIYNSDPLICRAGLKVCFGIQLLNAVSRVERALPALTVPFLLLQGSADRLCDSKGAYLLMELAKSQDKTLKIYEGAYHVLHKELPEVTNSVFHEINMWVSQRTATAGTASPP",0.633 s⁻¹,110 µM
"mut-MGLL 1-303, L167Q, L171Q: human MGLL 1-303 with cap-domain mutations L167Q, L171Q (protein, UniProt Q99685 1-303, looked up, variant L167Q L171Q) Monoglyceride lipase: MPEESSPRRTPQSIPYQDLPHLVNADGQYLFCRYWKPTGTPKALIFVSHGAGEHSGRYEELARMLMGLDLLVFAHDHVGHGQSEGERMVVSDFHVFVRDVLQHVDSMQKDYPGLPVFLLGHSMGGAIAILTAAERPGHFAGMVLISPLVLANPESATTFKVLAAKVQNLVQPNLSLGPIDSSVLSRNKTEVDIYNSDPLICRAGLKVCFGIQLLNAVSRVERALPKLTVPFLLLQGSADRLCDSKGAYLLMELAKSQDKTLKIYEGAYHVLHKELPEVTNSVFHEINMWVSQRTATAGTASPP",0.983 s⁻¹,84 µM
"mut-MGLL. 1-303, L167Q, L174Q: human MGLL 1-303 with cap-domain mutations L167Q, L174Q (protein, UniProt Q99685 1-303, looked up, variant L167Q L174Q) Monoglyceride lipase: MPEESSPRRTPQSIPYQDLPHLVNADGQYLFCRYWKPTGTPKALIFVSHGAGEHSGRYEELARMLMGLDLLVFAHDHVGHGQSEGERMVVSDFHVFVRDVLQHVDSMQKDYPGLPVFLLGHSMGGAIAILTAAERPGHFAGMVLISPLVLANPESATTFKVLAAKVQNLVLPNQSLGPIDSSVLSRNKTEVDIYNSDPLICRAGLKVCFGIQLLNAVSRVERALPKLTVPFLLLQGSADRLCDSKGAYLLMELAKSQDKTLKIYEGAYHVLHKELPEVTNSVFHEINMWVSQRTATAGTASPP",1.17 s⁻¹,84 µM
